According to patent publication JP2023053786A (dated 2023):

T1: HBs抗原(Prosec Tany Technology Ltd. HBS 875), biotinylated (Hepatitis B virus (adr型), UniProt P03140 175-400, biotinylated with EZ-Link NHS-PEG4-biotin (sites not given))
T1 construct: also called ビオチン化HBs抗原; adr型HBs抗原(PROSPEC社製)
T1 chain: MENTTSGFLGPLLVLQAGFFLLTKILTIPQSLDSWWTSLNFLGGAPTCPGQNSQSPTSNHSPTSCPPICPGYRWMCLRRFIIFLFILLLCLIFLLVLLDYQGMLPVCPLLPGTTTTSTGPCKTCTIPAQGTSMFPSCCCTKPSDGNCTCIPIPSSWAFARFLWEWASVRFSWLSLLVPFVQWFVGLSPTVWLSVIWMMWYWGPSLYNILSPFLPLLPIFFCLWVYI


Columns and labels:
[1] = target: T1, HBs抗原(Prosec Tany Technology Ltd. HBS …; experiment: BLI (Octet RED96e), biotinylated HBs antigen on streptavidin sensor, antibody in solution
[2] = target: T1, HBs抗原(Prosec Tany Technology Ltd. HBS …; experiment: BLI (Octet), as in Example 3: biotinylated HBs antigen on streptavidin sensor

| Binder | Kd [1] [pM] | Kd [2] [pM] |
| --- | --- | --- |
| クローンHB351 (mouse monoclonal HBs antigen-binding antibody) (antibody, V domains shown, Mouse hybridoma antibody; The 91/92 assignment follows the order HB351, HB1170, HB1215 = (1), (2), (3); also called HB351; クローン351) VH: EIQLQQSGAELVKPGASVKLSCTASGFNIKDTYMYWVKQRPEQGLEWIGRIDPANGDTKYDPNFQGKATITADPSSNTAYLQLTSLTSEDTAVYYCARDDYDGAMDYWGRGTSVTVSS VL: QIVLTQSPAIMSASPGERVTMTCSASSTVNYMYWYQQKPGSSPRLLNFDTSNLASGVPVRFSGSGSGTSYSLTISRMEAEDAATYYCQRWSTYPPITFGSGTKLEIK | ~300 | – |
| クローンHB1215 (mouse monoclonal HBs antigen-binding antibody) (antibody, V domains shown, Mouse hybridoma antibody; also called HB1215; HB1215クローン) VH: QVQLKQSGPGLVQPSQSLSLTCTVSGFSLATYGVQWVRQSPGKGLEWLGVIWRGGNTDYNAAFMSRLSITKDNSKSQVFFKMNSLQGDDTAIYYCAKATYFDVWGAGTTVTVSS VL: QAVVTQESALTTSPGETVTLTCRSSTGAVTTSNFANWVQEKPDHLFTGLIGDTNNRAPGVPARFSGSLIGDKAALTITGAQTEDEAIYFCALWYNNWVFGGGTKLTVL | ~300 | – |
| クローンHB1170 (mouse monoclonal HBs antigen-binding antibody) (antibody, V domains shown, Mouse hybridoma antibody; also called HB1170; HB1170クローン) VH: QIQLVQSGPELKKPGETVKISCKASGYTFTDFSMHWVKQAPGKGLKWMGWIDTETGEPTNADDFKGRFVFSLETSASAAYLQIHNLKNDDTATYFCARKDYELGTWFVYWGQGTLVTVST VL: DIQMTQTTSSLSASLGDRVTISCRASQDISNFLNWYQQKPDGTVKLLIYYTSRLHSGVPSRFSGSGSGTDYSLTISNLEQEDFATYFCQQGKTLPRTFGGGTILEIK | ~3000 | – |
| ヒト化HB351 (antibody, V domains shown, also called humanized HB351; ヒト化したモノクローナル抗体HB351) VH: EVQLVQSGAEVKKPGATVKISCKVSGFNIKDTYMYWVQQAPGKGLEWIGRIDPANGDTKYDPNFQGRVTITADTSTDTAYMELSSLRSEDTAVYYCARDDYDGAMDYWGQGTLVTVSS VL: EIVLTQSPATLSLSPGERATLSCSASSTVNYMYWYQQKPGQAPRLLNFDTSNLASGIPARFSGSGSGTDFTLTISSLEPEDFAVYYCQRWSTYPPITFGQGTKLEIK | – | ~300 |
| ヒト化HB1170 (antibody, V domains shown, also called humanized HB1170; ヒト化したモノクローナル抗体HB1170) VH: QVQLVQSGSELKKPGASVKVSCKASGYTFTDFSMHWVRQAPGQGLKWMGWIDTETGEPTNADDFKGRFVFSLDTSVSTAYLQISSLKAEDTAVYYCARKDYELGTWFVYWGQGTTVTVSS VL: DIQMTQSPSSLSASVGDRVTITCRASQDISNFLNWYQQKPGKAPKLLIYYTSRLHSGVPSRFSGSGSGTDYTLTISSLQPEDFATYYCQQGKTLPRTFGGGTKVEIK | – | ~3000 |
